Assay results from paper PMC12910678 (Nature, 2021).

Molecular target: SARS-CoV-2 RBD (residues 319-591) (SARS-CoV-2, Wuhan-Hu-1 (MN908947), UniProt P0DTC2)
Test: SPR

B1: C121 IgG (antibody, V domains shown)
VH: not shown
VL: QSALTQPASVSGSPGQSITISCTGTSSDVGSYNLVSWYQQHPGKAPKLMIYEGSKRPSGVSNRFSGSKSGNTASLTISGLQAEDEADYYCCSYAGSSTLVFGGGTKLTVL
B1: binds.
